{"source": "paper PMC4482077", "assay_in_all_cases": "AUC", "key": {"[1]": {"molecular_target": "LiaR^D50E (phosphomimetic mutant of E. faecalis S613 LiaR) (Enterococcus faecalis S613)"}, "[2]": {"molecular_target": "LiaR^D191N (adaptive mutant of E. faecalis S613 LiaR) (Enterococcus faecalis S613)"}, "[3]": {"molecular_target": "LiaR^(DBD)D191N, isolated DNA binding domain of E. faecalis S613 LiaR (residues 140-206) with D191N (Enterococcus faecalis S613)"}, "[4]": {"molecular_target": "E. faecalis S613 LiaR (wild type, full length) (Enterococcus faecalis S613)"}, "[5]": {"molecular_target": "LiaR^(DBD), isolated DNA binding domain of wild-type E. faecalis S613 LiaR (residues 140-206) (Enterococcus faecalis S613)"}}, "note": "pKd: −log10 of the molar value.", "data": [{"substance": "LiaR^D50E (phosphomimetic mutant of E. faecalis S613 LiaR) (natural protein)", "values": [{"measurement": "stoichiometry N", "setting": "[1]", "value": 4}]}, {"substance": "LiaR^D191N (adaptive mutant of E. faecalis S613 LiaR) (natural protein)", "values": [{"measurement": "pKd", "setting": "[2]", "value": "> 7.22"}, {"measurement": "stoichiometry N", "setting": "[2]", "value": 4}]}, {"substance": "LiaR^(DBD)D191N, isolated DNA binding domain of E. faecalis S613 LiaR (residues 140-206) with D191N (domain or fragment)", "values": [{"measurement": "pKd", "setting": "[3]", "value": "> 7.40"}, {"measurement": "stoichiometry N", "setting": "[3]", "value": 2}]}, {"substance": "E. faecalis S613 LiaR (wild type, full length) (natural protein)", "values": [{"measurement": "pKd", "setting": "[4]", "value": 4.62}, {"measurement": "stoichiometry N", "setting": "[4]", "value": 4}]}, {"substance": "LiaR^(DBD), isolated DNA binding domain of wild-type E. faecalis S613 LiaR (residues 140-206) (domain or fragment)", "values": [{"measurement": "pKd", "setting": "[5]", "value": 5.70}, {"measurement": "stoichiometry N", "setting": "[5]", "value": 2}]}]}
